These results are taken from publication PMC3457981, “The Role, Interaction and Regulation of the Velvet Regulator VelB in Aspergillus nidulans”.

First the molecules themselves.
T1: GST-AbaA (Aspergillus nidulans, UniProt P20945 1-588)
T1 sequence: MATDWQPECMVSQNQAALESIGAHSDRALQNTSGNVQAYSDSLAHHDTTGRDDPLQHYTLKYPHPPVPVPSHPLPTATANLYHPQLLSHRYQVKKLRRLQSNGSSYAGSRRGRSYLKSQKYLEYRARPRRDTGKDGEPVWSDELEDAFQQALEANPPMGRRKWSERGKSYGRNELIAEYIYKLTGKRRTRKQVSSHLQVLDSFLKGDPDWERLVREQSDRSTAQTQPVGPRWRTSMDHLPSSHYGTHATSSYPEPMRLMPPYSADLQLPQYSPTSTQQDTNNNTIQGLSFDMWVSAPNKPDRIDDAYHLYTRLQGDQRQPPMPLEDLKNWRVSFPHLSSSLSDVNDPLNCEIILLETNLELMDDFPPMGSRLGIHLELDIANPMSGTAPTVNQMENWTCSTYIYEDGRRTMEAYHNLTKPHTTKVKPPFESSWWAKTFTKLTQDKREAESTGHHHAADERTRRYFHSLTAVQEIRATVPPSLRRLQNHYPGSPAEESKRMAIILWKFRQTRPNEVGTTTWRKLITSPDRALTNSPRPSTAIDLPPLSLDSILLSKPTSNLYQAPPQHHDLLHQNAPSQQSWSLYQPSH

B1: velB EMSA probe 2 (dsDNA)
DNA 1: AGCTCCAGCTCCATTCCGCACGGTCATTCCGTTCTCGGCG
DNA 2: CGCCGAGAACGGAATGACCGTGCGGAATGGAGCTGGAGCT
B2: vosA EMSA probe 3 (dsDNA)
DNA 1: GTGGTTCCTTACCTCATTCCCGACCTTTTTTGCC
DNA 2: GGCAAAAAAGGTCGGGAATGAGGTAAGGAACCAC
B3: velB EMSA probe 1 (dsDNA)
DNA 1: CAGCTCCATTCCGCACGGTCATTCC
DNA 2: GGAATGACCGTGCGGAATGGAGCTG

This data set has as its target T1, GST-AbaA. Description: EMSA; 6% glycerol, 12 mM HEPES-KOH pH 7.6, 4 mM Tris-HCl pH 8.0, 1 mM EDTA, 0.5 mM DTT, 0-12 ug poly(dI-dC), ~10 ng probe in 24 ul; RT, 20 min; 6% PAGE, TBE. The note with it: protein: recombinant; tags: N-terminal GST (pGEX-5X-1); label: 32P (5' end, T4 PNK); blunt.
As for B1, the binding result was “binds”.

B2: the binding result is “binds”.

Regarding B3, the binding result is listed as “binds”.
